One assay has as its target T1, endogenous SLC38A9 (human, UniProt Q8NBW4 1-561, limits assumed).
T1 construct: Endogenous protein of HEK-293T cells, found by LC-MS-MS or immunoblot; also called SLC38A9 (NCBI Gene ID: 153129)
T1 sequence: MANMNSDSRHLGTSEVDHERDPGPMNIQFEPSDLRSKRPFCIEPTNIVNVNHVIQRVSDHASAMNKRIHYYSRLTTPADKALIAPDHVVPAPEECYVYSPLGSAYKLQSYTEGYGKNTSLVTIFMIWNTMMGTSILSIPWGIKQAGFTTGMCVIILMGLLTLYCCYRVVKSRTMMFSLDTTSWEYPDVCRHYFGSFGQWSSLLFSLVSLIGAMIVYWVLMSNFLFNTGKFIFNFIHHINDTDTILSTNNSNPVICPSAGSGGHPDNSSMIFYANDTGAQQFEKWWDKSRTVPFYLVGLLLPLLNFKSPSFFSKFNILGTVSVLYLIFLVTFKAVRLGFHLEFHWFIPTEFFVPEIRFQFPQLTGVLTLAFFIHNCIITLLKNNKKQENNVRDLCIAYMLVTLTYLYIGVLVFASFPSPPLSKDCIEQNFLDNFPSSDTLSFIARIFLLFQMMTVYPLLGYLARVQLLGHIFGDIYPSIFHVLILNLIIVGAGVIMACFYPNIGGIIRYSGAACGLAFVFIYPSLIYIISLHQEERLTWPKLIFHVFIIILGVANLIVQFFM
Put plainly: FLAG IP from HEK-293T cells stably expressing the bait, - or + amino acids; immunoblot.

Another assay concerns the target T2, raptor (human (HEK-293T cells), UniProt Q8N122).
T2 construct: endogenous; Named only on the sheet
Put plainly: FLAG IP from transfected HEK-293T cells, immunoblot. The protocol:
HEK-293T cells were cultured in DMEM supplemented with 10% inactivated fetal bovine serum, penicillin (100 IU/mL), and streptomycin (100 μg/mL) and maintained at 37° C. and 5% CO₂. Two million HEK-293T cells were plated in 10 cm culture dishes.
Transfection mixes were taken up to a total of 5 μg of DNA using empty pRK5. HEK-293T cells stably expressing FLAG-tagged proteins were rinsed once with ice-cold PBS and lysed in ice-cold lysis buffer (40 mM HEPES pH 7.4, 1% Triton X-100, 10 mM β-glycerol phosphate, 10 mM pyrophosphate, 2.5 mM MgC12 and 1 tablet of EDTA-free protease inhibitor (Roche) per 25 ml buffer). The soluble fractions from cell lysates were isolated by centrifugation at 13,000 rpm for 10 min in a microcentrifuge. […] Immunoprecipitates were washed three times with lysis buffer containing 500 mM NaCl. Immunoprecipitated proteins were denatured by the addition of 50 μL of sample buffer and incubation at RT for 30 min. It is critical that the samples containing SLC38A9 are neither boiled nor frozen prior to resolution by SDS-PAGE and analysis by immunoblotting. A similar protocol was employed when preparing samples for mass spectrometry.

In assay [1] the target is co-expressed epitope tagged Ragulator proteins (UniProt Q6IAA8 2-161; Q9Y2Q5 1-125; Q9UHA4 1-124; Q0VGL1 1-99; O43504 1-91). Put plainly: FLAG IP (FLAG-p14) from HEK-293T cells co-transfected with the HA-tagged Ragulator components and HA-SLC38A9.4; immunoblot.

T2 sequence (Q8N122 whole entry): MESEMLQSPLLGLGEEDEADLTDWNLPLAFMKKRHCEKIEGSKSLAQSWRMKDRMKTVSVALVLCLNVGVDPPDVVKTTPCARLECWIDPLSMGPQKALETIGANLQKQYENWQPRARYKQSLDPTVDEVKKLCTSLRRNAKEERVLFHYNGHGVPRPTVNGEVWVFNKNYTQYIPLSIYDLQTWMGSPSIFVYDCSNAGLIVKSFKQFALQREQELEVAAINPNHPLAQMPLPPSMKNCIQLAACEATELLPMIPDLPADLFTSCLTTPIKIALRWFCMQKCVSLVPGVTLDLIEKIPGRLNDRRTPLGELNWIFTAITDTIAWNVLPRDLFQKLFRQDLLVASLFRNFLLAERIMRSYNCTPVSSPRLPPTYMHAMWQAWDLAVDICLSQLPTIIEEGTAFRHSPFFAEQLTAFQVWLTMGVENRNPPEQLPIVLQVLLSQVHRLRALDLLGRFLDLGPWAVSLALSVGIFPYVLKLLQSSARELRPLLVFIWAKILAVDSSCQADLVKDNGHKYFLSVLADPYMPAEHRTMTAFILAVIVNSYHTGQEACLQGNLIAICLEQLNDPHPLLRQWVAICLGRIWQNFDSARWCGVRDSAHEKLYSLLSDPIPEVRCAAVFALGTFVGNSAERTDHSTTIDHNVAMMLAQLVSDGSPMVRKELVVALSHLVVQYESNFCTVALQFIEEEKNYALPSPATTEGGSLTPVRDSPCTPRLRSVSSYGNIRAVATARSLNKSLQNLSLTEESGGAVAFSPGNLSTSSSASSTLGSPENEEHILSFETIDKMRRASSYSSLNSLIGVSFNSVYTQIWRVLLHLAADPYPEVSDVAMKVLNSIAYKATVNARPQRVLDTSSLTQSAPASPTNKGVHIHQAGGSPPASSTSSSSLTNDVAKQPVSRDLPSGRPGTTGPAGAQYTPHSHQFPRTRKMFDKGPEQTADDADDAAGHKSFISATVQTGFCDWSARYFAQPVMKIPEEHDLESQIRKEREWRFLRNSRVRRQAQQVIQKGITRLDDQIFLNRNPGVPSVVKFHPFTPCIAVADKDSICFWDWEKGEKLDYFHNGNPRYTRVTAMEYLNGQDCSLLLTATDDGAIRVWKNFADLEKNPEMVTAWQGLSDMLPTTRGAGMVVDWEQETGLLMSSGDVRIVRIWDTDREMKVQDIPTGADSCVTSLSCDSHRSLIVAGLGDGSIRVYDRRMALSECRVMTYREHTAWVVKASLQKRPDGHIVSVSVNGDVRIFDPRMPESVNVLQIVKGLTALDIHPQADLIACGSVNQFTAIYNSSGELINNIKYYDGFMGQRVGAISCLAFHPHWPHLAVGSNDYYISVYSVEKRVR

B1: FLAG-metap2 (enzyme)
chain: DYKDDDDKMAGVEEVAASGSHLNGDLDPDDREEGAASTAEEAAKKKRRKKKKSKGPSAAGEQEPDKESGASVDEVARQLERSALEDKERDEDDEDGDGDGDGATGKKKKKKKKKRGPKVQTDPPSVPICDLYPNGVFPKGQECEYPPTQDGRTAAWRTTSEEKKALDQASEEIWNDFREAAEAHRQVRKYVMSWIKPGMTMIEICEKLEDCSRKLIKENGLNAGLAFPTGCSLNNCAAHYTPNAGDTTVLQYDDICKIDFGTHISGRIIDCAFTVTFNPKYDTLLKAVKDATNTGIKCAGIDVRLCDVGEAIQEVMESYEVEIDGKTYQVKPIRNLNGHSIGQYRIHAGKTVPIVKGGEATRMEEGEVYAIETFGSTGKGVVHDDMECSHYMKNFDVGHVPIRLPRTKHLLNVINENFGTLAFCRRWLDRLGESKYLMALKNLCDLGIVDPYPPLCDIKGSYTAQFEHTILLRPTCKEVVSRGDDY
notes: Control bait; also called control protein Metap2
On to B1, for which the binding result in the assay with endogenous SLC38A9 and in the assay with raptor was “no binding” in each case.

B2: HA-SLC38A9.4 (other)
single chain: LVTIFMIWNTMMGTSILSIPWGIKQAGFTTGMCVIILMGLLTLYCCYRVVKSRTMMFSLDTTSWEYPDVCRHYFGSFGQWSSLLFSLVSLIGAMIVYWVLMSNFLFNTGKFIFNFIHHINDTDTILSTNNSNPVICPSAGSGGHPDNSSMIFYANDTGAQQFEKWWDKSRTVPFYLVGLLLPLLNFKSPSFFSKFNILGTVSVLYLIFLVTFKAVRLGFHLEFHWFIPTEFFVPEIRFQFPQLTGVLTLAFFIHNCIITLLKNNKKQENNVRDLCIAYMLVTLTYLYIGVLVFASFPSPPLSKDCIEQNFLDNFPSSDTLSFIARIFLLFQMMTVYPLLGYLARVQLLGHIFGDIYPSIFHVLILNLIIVGAGVIMACFYPNIGGIIRYSGAACGLAFVFIYPSLIYIISLHQEERLTWPKLIFHVFIIILGVANLIVQFFM
notes: also called HA-tagged SLC38A9 isoform 4
B2: the binding result in assay [1] is recorded as “no binding”.

The record behind these values is US20170082633A1 (WHITEHEAD INSTITUTE FOR BIOMEDICAL RESEARCH, published 2017).
